# From patent publication US20120208867, “HMGB1 BINDING NUCLEIC ACID MOLECULE AND APPLICATIONS THEREOF” (published 2012)
# What was measured:
# Conditions in all cases: tags: N-terminal His-tag
# His-tagged HMGB1 [1] = target: T1, His-tagged HMGB1 (UniProt P09429 P09429:1-215); assay: SPR; 150 nM protein; excellent binding
# Experimental: (§1) The ability of each of the aforementioned RNA aptamers to bind to HMGB1 in which His-tag was added to the N-terminus (His-tag-added HMGB1) was examined. For the analysis of the aforementioned binding ability, a BIACORE (registered trademark) X (manufactured by GE Healthcare) was used according to its instruction manual.
# (§2) First, a sensor chip (trade name: Sensor Chip SA, manufactured by GE Heathcare) specially made for a BIACORE was set on the aforementioned BLACORE (registered trademark) X. Biotinylate deoxythymidine (5 μmol/L) was injected into the flow cell 2 of the aforementioned sensor chip using a running buffer and subjected to binding until the signal intensity (RU: resonance unit) reached about 1000 RU. For the aforementioned biotinylated deoxythymidine, 20-base-long deoxythymidine in which the 5′ end was biotinylated was used. Then, 10 μg/mL of an RNA aptamer was injected at a flow rate of 20 μL/min for 1 min into the aforementioned flow cells 1 and 2 of the aforementioned chip using a running buffer and subjected to binding until the signal intensity reached about 1000 RU. Next, […] of 20 μL/min for 30 sec using the aforementioned running buffer, and under the same conditions the aforementioned running buffer was allowed to flow continuously for washing. Simultaneously with the injection of the aforementioned His-tag-added HMGB1 and washing with the aforementioned running buffer, signal intensity was measured. The aforementioned running buffer was composed of 20 mmol/L of HEPES, 500 mmol/L of NaCl, 0.1 mmol/L of MgCl₂, and 0.1% Triton X-100 (registered trademark), with the pH thereof being 7.2. As a blocking agent for suppressing nonspecific binding, tRNA was used in a concentration of 1 mg/mL. In a comparative example, signal intensity was measured in the same manner except that the aforementioned comparative example RNA was used in place of the aforementioned example RNA aptamers.
# His-tagged HMGB1 [2] = target: T1, His-tagged HMGB1; assay: SPR; 200 nM protein, 500 mM NaCl
# Experimental: (§3) First, a sensor chip (trade name: Sensor Chip SA, manufactured by GE Heathcare) specially made for a BIACORE was set on the aforementioned BLACORE (registered trademark) X. Biotinylate deoxythymidine (5 μmol/L) was injected into the flow cell 2 of the aforementioned sensor chip using a running buffer and subjected to binding until the signal intensity (RU: resonance unit) reached about 1000 RU. For the aforementioned biotinylated deoxythymidine, 20-base-long deoxythymidine in which the 5′ end was biotinylated was used. Then, 10 μg/mL of an RNA aptamer was injected at a flow rate of 20 μL/min for 1 min into the aforementioned flow cells 1 and 2 of the aforementioned chip using a running buffer and subjected to binding until the signal intensity reached about 1000 RU. Next, 675 nmol/L of the aforementioned His-tag-added HMGB1 was injected at a flow rate of 20 μL/min for 30 sec using the aforementioned running buffer, and under the same conditions the aforementioned running buffer was allowed to flow continuously for washing. Simultaneously with the injection of the aforementioned His-tag-added HMGB1 and washing with the aforementioned running buffer, signal intensity was measured. The aforementioned running buffer was composed of 20 mmol/L of HEPES, 500 mmol/L of NaCl, 0.1 mmol/L of MgCl₂, and 0.1% Triton X-100 (registered trademark), with the pH thereof being 7.2. As a blocking agent for suppressing nonspecific binding, tRNA was used in a concentration of 1 mg/mL. In a comparative example, signal intensity was measured in the same manner except that the aforementioned comparative example RNA was used in place of the aforementioned example RNA aptamers.
# An analysis of ability to bind to His-tag-added HMGB1 was carried out in the same manner as in (2) above of the aforementioned Example 1 except that the aforementioned fluorinated RNA aptamers were used, the concentration of His-tag-added HMGB1 was 200 nmol/L, and the injection time of the aforementioned His-tag-added HMGB1 was 60 seconds. Also, an analysis was carried out in the same manner on the aforementioned 2′F-40N and unmodified R8c6_{—}1 that was not fluorinated.
# His-tagged HMGB1 [3] = target: T1, His-tagged HMGB1; assay: SPR; 635 nM protein, 500 mM NaCl
# Experimental: as §3
# An analysis of ability to bind to His-tag-added HMGB1 was carried out in the same manner as in (2) above of the aforementioned Example 1 except that the aforementioned RNA aptamers were used, the concentration of the aforementioned His-tag-added HMGB1 was 635 nmol/L, and the injection time of the aforementioned His-tag-added HMGB1 was 60 seconds. […]
# His-tagged HMGB1 [4] = target: T1, His-tagged HMGB1; assay: SPR; comparable to unmodified R8c6_1 at 500 and 150 mM NaCl
# His-tagged HMGB1 [5] = target: T1, His-tagged HMGB1; assay: SPR; superior to R8c6_1; 160 nM protein
# Experimental: as §2, with “The aforementioned running buffer was composed of 20 mmol/L of HEPES, 500 mmol/L of NaCl, 0.1 mmol/L of MgCl₂, and 0.1% Triton X-100 (registered trademark), with the pH thereof being 7.2. As a blocking agent for suppressing nonspecific binding, tRNA was used in a concentration of 1 mg/mL.” left out, “aptamers. […]” for “aptamers.”
# His-tagged HMGB1 [6] = target: T1, His-tagged HMGB1; assay: SPR; 150 nM protein; listed in Table 7
# Experimental: as §1
# First, a sensor chip (trade name: Sensor Chip SA, manufactured by GE Heathcare) specially made for a BIACORE was set on the aforementioned BLACORE (registered trademark) X. Biotinylate deoxythymidine (5 μmol/L) was injected into the flow cell 2 of the aforementioned sensor chip using a running buffer and subjected to binding until the signal intensity (RU: resonance unit) reached about 1000 RU. For the aforementioned biotinylated deoxythymidine, 20-base-long deoxythymidine in which the 5′ end was biotinylated was used. […] Simultaneously with the injection of the aforementioned His-tag-added HMGB1 and washing with the aforementioned running buffer, signal intensity was measured. […] In a comparative example, signal intensity was measured in the same manner except that the aforementioned comparative example RNA was used in place of the aforementioned example RNA aptamers.
# His-tagged HMGB1 [7] = target: T1, His-tagged HMGB1; assay: SPR; 200 nM protein; comparable to unmodified R8c6_1 at 150 mM NaCl
# His-tagged HMGB1 [8] = target: T1, His-tagged HMGB1; assay: SPR; 200 nM protein, 150 mM NaCl; excellent binding
# Experimental: First, a sensor chip (trade name: Sensor Chip SA, manufactured by GE Heathcare) specially made for a BIACORE was set on the aforementioned BLACORE (registered trademark) X. Biotinylate deoxythymidine (5 μmol/L) was injected into the flow cell 2 of the aforementioned sensor chip using a running buffer and subjected to binding until the signal intensity (RU: resonance unit) reached about 1000 RU. For the aforementioned biotinylated deoxythymidine, 20-base-long deoxythymidine in which the 5′ end was biotinylated was used. Then, 10 μg/mL of an RNA aptamer was injected at a flow rate of 20 μL/min for 1 min into the aforementioned flow cells 1 and 2 of the aforementioned chip using a running buffer and subjected to binding until the signal intensity reached about 1000 RU. Next, […] of 20 μL/min for 30 sec using the aforementioned running buffer, and under the same conditions the aforementioned running buffer was allowed to flow continuously for washing. Simultaneously with the injection of the aforementioned His-tag-added HMGB1 and washing with the aforementioned running buffer, signal intensity was measured. […] In a comparative example, signal intensity was measured in the same manner except that the aforementioned comparative example RNA was used in place of the aforementioned example RNA aptamers. […]
# T1 sequence (P09429 whole entry, one chain of several): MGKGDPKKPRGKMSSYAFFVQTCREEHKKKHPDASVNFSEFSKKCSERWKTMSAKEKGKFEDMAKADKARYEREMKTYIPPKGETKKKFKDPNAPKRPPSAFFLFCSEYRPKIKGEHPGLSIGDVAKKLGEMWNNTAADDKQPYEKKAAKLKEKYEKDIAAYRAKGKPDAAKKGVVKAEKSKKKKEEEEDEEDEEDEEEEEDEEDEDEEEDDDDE
binder,measurement,setting,value
"GGGACAGUAAGACACGUAGCACCAGUGUGCCUGGACGUGCAGU (ssRNA, 2'-F on all C and U) [2'F-R8c6_1-21-S6]",binding result,His-tagged HMGB1 [1],binds
"2'F-R8c6_1-15 (ssRNA, 2'-F on all C and U) RNA: GGGCAGAGUACAGUAAGACACGUAGCACCAGUCUGACGUUUGUCGUCAGUGCCUGGACGUGCAGU",binding result,His-tagged HMGB1 [2],binds
R8c6_1-1 (ssRNA) RNA: GGGACGCUCACGUACGCUCAGAGUACAGUAAGACACGUAGCACCAGUCUGACGUUUGUCGUCAGUGCCUGGACGUGCAG,binding result,His-tagged HMGB1 [3],binds
"GGGACAGUAAGACACGUAGCACCAGUGCCUGGACGUGCAGU (ssRNA, 2'-F on all C and U) [2'F-R8c6_1-21-S8]",binding result,His-tagged HMGB1 [1],binds
"2'F-R8c6_1-18 (ssRNA, 2'-F on all C and U) RNA: GGGAGUACAGUAAGACACGUAGCACCAGUCUGACGUUUGUCGUCAGUGCCUGGACGUGCAGU",binding result,His-tagged HMGB1 [4],binds
"GGGAGUACAGUAAGACACGUAGCACCAGUGUGCCUGGACGUGCAGU (ssRNA, 2'-F on all C and U) [2'F-R8c6_1-18-S6]",binding result,His-tagged HMGB1 [1],binds
R8c6_1-25 (ssRNA) RNA: GGGUAAGACACGUAGCACCAGUCUGACGUUUGUCGUCAGUGCCUGGACGUGCAGU,binding result,His-tagged HMGB1 [5],binds
"2'F-R8c6_1-25 (ssRNA, 2'-F on all C and U) RNA: GGGUAAGACACGUAGCACCAGUCUGACGUUUGUCGUCAGUGCCUGGACGUGCAGU",binding result,His-tagged HMGB1 [1],binds
R8c6_1-4 (ssRNA) RNA: GGGACGCUCACGUACGCUCAGAGUACAGUAAGACACGUAGCACCAGUCUGACGUUUGUCGUCAGUGCCUGGACGUG,binding result,His-tagged HMGB1 [3],binds
"2'F-R8c6_1-4 (ssRNA, 2'-F on all C and U) RNA: GGGACGCUCACGUACGCUCAGAGUACAGUAAGACACGUAGCACCAGUCUGACGUUUGUCGUCAGUGCCUGGACGUG",binding result,His-tagged HMGB1 [2],binds
R8c6_1-3 (ssRNA) RNA: GGGACGCUCACGUACGCUCAGAGUACAGUAAGACACGUAGCACCAGUCUGACGUUUGUCGUCAGUGCCUGGACGUGC,binding result,His-tagged HMGB1 [3],binds
"GGGUAAGACACGUAGCACCAGUGUGCCUGGACGUGCGU (ssRNA, 2'-F on all C and U) [2'F-R8c6_1-25-S6A3]",binding result,His-tagged HMGB1 [6],binds
R8c6_1-18-S2 (ssRNA) RNA: GGGAGUACAGUAAGACACGUAGCACCAGUCGCGUUUGUCGCGUGCCUGGACGUGCAGU,binding result,His-tagged HMGB1 [5],binds
"2'F-R8c6_1 (2'F-CU-R8c6_1) (ssRNA, 2'-F on all C and U) RNA: GGGACGCUCACGUACGCUCAGAGUACAGUAAGACACGUAGCACCAGUCUGACGUUUGUCGUCAGUGCCUGGACGUGCAGU",binding result,His-tagged HMGB1 [7],binds
"2'F-C-R8c6_1 (ssRNA, 2'-F on all C) RNA: GGGACGCUCACGUACGCUCAGAGUACAGUAAGACACGUAGCACCAGUCUGACGUUUGUCGUCAGUGCCUGGACGUGCAGU",binding result,His-tagged HMGB1 [8],binds
"2'F-U-R8c6_1 (ssRNA, 2'-F on all U) RNA: GGGACGCUCACGUACGCUCAGAGUACAGUAAGACACGUAGCACCAGUCUGACGUUUGUCGUCAGUGCCUGGACGUGCAGU",binding result,His-tagged HMGB1 [8],binds
"2'F-R8c6_1-21 (ssRNA, 2'-F on all C and U) RNA: GGGACAGUAAGACACGUAGCACCAGUCUGACGUUUGUCGUCAGUGCCUGGACGUGCAGU",binding result,His-tagged HMGB1 [2],binds
